# Values of other authors, collected in PMC10373500.
# Target: Asp76 (UniProt position 102, GSPGADRVVFN)
substance,measurement,value
Ribonuclease T1 (RNase T1) (not stated in the article (Aspergillus oryzae from outside knowledge)),pKa,0.5
